Non-standard residues stand in square brackets, D forms with d. No end group written: not given here. fluorescein = fluorescein-6-aminohexanoyl label; pY = N[C@@H](Cc1ccc(OP(=O)(O)O)cc1)C(=O)O; Ahx = NCCCCCC(=O)O
B1: F-Ahx-NEpYDNV, fluorescein-6-aminohexanoyl-labeled pY-containing peptide (peptide)
peptide: {fluorescein-Ahx}-NE[pY]DNV

How the values were obtained:
[1] = biological target: T1, C1-Ten SH2 domain (C1-Ten/Tensin2) (Homo sapiens, UniProt Q63HR2); assay: equilibrium SPR, L1 chip with lipid vesicles; assay type: binding
T1 sequence (Q63HR2 1120-1253): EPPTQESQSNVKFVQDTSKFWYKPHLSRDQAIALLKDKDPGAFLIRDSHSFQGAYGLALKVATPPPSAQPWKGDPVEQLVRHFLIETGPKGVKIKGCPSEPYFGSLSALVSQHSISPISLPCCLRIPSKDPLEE

[2] = biological target: T2, C1-Ten SH2 domain (C1-Ten/Tensin2) (Homo sapiens, UniProt Q63HR2, K1142Q/K1155Q/K1157Q); assay: equilibrium SPR, L1 chip with lipid vesicles; assay type: binding
T2 sequence (Q63HR2 1120-1253 K1142Q/K1155Q/K1157Q): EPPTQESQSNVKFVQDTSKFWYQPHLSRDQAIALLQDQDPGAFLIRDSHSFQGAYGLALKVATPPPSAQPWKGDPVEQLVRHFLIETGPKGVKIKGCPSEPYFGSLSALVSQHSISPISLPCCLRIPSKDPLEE

[3] = biological target: T3, C1-Ten/Tensin2 SH2 domain R1165A (UniProt Q63HR2 1120-1253, R1165A); assay: fluorescence polarisation
T3 sequence (looked up): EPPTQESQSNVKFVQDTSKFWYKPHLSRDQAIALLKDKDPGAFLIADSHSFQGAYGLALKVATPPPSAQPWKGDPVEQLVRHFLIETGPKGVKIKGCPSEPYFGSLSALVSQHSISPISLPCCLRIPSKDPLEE

[4] = biological target: T4, C1-Ten/Tensin2 SH2 domain K1142Q/K1155Q/K1157Q (UniProt Q63HR2 1120-1253, K1142Q | K1155Q | K1157Q); assay: fluorescence polarisation
T4 sequence (looked up): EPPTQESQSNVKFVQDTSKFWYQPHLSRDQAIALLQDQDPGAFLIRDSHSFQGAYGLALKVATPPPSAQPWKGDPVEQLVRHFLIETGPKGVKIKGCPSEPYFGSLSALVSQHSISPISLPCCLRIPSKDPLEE

[5] = biological target: T5, C1-Ten/Tensin2 SH2 domain, wild type (UniProt Q63HR2 1120-1253); assay: fluorescence polarisation
T5 sequence (looked up): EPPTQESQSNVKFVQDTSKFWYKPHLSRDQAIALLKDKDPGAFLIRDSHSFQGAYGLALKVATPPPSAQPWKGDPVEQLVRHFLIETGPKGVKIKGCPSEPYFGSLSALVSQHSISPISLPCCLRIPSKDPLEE

Row | Molecule | Kd [1] [µM] | Kd [2] [µM] | Kd [3] [µM] | Kd [4] [µM] | Kd [5] [µM]
1 | CCCCCCCCCCCCCCCC(=O)OC[C@H](COP(=O)(O)O[C@H]1[C@H](O)[C@@H](OP(=O)(O)O)[C@H](OP(=O)(O)O)[C@@H](OP(=O)(O)O)[C@H]1O)OC(=O)CCCCCCCCCCCCCCC [PtdIns(3,4,5)P3] | 0.26 ± 0.04 | 1.26 ± 0.128 | – | – | –
2 | B1 | – | – | 90.9 ± 11.4 | 3.6 ± 1.4 | 2.5 ± 1.3

From publication PMC6392469 (Cellular signalling, 2018)
